Measurements as given in US20260217820A1 (ERASMUS UNIVERSITY MEDICAL CENTER ROTTERDAM, published 2026).

B1: recombinant monoclonal antibody PR004382 (antibody, human IgG1, kappa)
heavy: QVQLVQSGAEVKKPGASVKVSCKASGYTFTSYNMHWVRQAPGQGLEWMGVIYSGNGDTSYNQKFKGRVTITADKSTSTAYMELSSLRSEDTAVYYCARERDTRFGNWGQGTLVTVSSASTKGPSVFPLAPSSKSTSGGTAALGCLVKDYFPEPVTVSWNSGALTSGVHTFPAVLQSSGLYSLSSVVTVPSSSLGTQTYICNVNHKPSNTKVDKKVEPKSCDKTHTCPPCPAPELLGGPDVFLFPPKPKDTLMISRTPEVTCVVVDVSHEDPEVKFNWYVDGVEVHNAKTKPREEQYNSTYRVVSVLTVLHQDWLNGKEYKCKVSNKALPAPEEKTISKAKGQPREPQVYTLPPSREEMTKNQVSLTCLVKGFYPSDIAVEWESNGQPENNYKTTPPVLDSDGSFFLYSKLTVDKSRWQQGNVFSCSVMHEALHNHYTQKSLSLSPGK
light: DIVMTQSPDSLAVSLGERATINCRASESVDIYGNSFMHWYQQKPGQPPKLLIYLASNLESGVPDRFSGSGSGTDFTLTISSLQAEDVAVYYCQQNNEDPYTFGGGTKVEIKRTVAAPSVFIFPPSDEQLKSGTASVVCLLNNFYPREAKVQWKVDNALQSGNSQESVTEQDSKDSTYSLSSTLTLSKADYEKHKVYACEVTHQGLSSPVTKSFNRGEC
notes: compared with a human IgG1 isotype control; also called PR004382 anti-CD117 antibody; copies: 2 + 2
B2: PR001310 anti-HELxCD3 control Bispecific T cell engager (bispecific antibody)
chain: DIVLTQSPAIMSASPGEKVTMTCSASSSVNYMYWYQQKSGTSPKRWIYDTSKLASGVPVRFSGSGSGTSYSLTISSMETEDAAEYYCQQWGRNPTFGGGTKLEIKRTVAAPSVFIFPPSDEQLKSGTASVVCLLNNFYPREAKVQWKVDNALQSGNSQESVTEQDSKDSTYSLSSTLTLSKADYEKHKVYACEVTHQGLSSPVTKSFNRGECEVQLVESGGGLVQPGGSLKLSCAASGFTFNTYAMNWVRQASGKGLEWVGRIRSKYNNYATYYADSVKDRFTISRDDSKSTLYLQMNSLKTEDTAVYYCVRHGNFGNSYVSWFAYWGQGTLVTVSSASTKGPSVFPLAPSSKSTSGGTAALGCLVKDYFPEPVTVSWNSGALTSGVHTFPAVLQSSGLYSLSSVVTVPSSSLGTQTYICNVNHKPSNTKVDKKVEPKSC
heavy: EVQLQQSGAELMKPGASVKISCKASGYTFSDYWIEWVKQRPGHGLEWIGEILPGSGSTNYHERFKGKATFTADTSSSTAYMQLNSLTSEDSGVYYCLHGNYDFDGWGQGTTLTVSSASTKGPSVFPLAPSSKSTSGGTAALGCLVKDYFPEPVTVSWNSGALTSGVHTFPAVLQSSGLYSLSSVVTVPSSSLGTQTYICNVNHKPSNTKVDKKVEPKSC
light: QAVVTQEPSLTVSPGGTVTLTCRSSTGAVTTSNYANWVQQKPGQAPRGLIGGTNKRAPWTPARFSGSLLGDKAALTLLGAQPEDEAEYFCALWYSNLWVFGGGTKLTVLGQPKAAPSVTLFPPSSEELQANKATLVCLISDFYPGAVTVAWKADSSPVKAGVETTTPSKQSNNKYAASSYLSLTPEQWKSHRSYSCQVTHEGSTVEKTVAPTECS
notes: Control engager; HEL = hen egg lysozyme; Same CD3 arm as PR004384; also called control anti-HELxCD3 Bispecific T cell engager

Columns and labels:
[1] = target: T1, CD117 protein (SinoBiological, cat #11996-H08H) (UniProt P10721-2 26-516); assay: ELISA, CD117 protein coated
T1 construct: Bought reagent
T1 sequence (P10721 other isoform, or with tags, fused parts or gaps H08H H08H limits assumed): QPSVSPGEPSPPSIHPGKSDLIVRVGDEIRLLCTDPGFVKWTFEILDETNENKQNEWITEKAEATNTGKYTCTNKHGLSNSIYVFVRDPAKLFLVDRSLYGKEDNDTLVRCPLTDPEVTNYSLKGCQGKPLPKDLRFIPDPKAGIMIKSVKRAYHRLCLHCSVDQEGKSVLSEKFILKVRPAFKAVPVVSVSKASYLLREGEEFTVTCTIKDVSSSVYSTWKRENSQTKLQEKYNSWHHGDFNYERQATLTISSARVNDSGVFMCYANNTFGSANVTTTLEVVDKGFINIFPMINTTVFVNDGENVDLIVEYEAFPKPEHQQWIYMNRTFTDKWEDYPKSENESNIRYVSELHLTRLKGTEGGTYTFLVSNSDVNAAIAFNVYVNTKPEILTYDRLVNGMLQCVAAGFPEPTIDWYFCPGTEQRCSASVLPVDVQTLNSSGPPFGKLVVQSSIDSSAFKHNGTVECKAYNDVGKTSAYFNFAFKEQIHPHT

[2] = target: T2, Human CD16a (V176) protein (NovoProtein, cat #C441) (human, UniProt P08637 17-208); assay: BLI (Octet Red 96e), CD16a (V176) on HIS1K sensors, antibody in solution, 1:1 global fit
T2 construct: also called CD16a receptor
T2 sequence (P08637 17-208 F176V limits assumed): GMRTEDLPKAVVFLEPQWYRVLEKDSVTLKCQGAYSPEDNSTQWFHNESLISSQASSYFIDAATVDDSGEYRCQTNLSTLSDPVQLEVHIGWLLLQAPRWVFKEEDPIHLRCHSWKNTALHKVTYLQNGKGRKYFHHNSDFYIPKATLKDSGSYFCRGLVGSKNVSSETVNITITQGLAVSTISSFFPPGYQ

[3] = target: T1, CD117 protein (SinoBiological, cat …); assay: ELISA on plate-coated CD117 protein, detection with anti-human IgG (Fc specific)-peroxidase, OD at 450 nm
[4] = target: T3, Rhesus Macaque CD117 on CD34-enriched bone marrow hematopoietic stem cells (Rhesus Macaque, UniProt F6V858 26-976); assay: flow cytometry on Rhesus Macaque CD34-enriched bone marrow cells gated on CD34+ CD117+, R-Phycoerythrin goat anti-human F(ab')2 detection
T3 construct: whole, on cells; also called CD117 of Rhesus Macaque; Rhesus Macaque CD117-positive hematopoietic stem cells

Binder | EC50 [1] [nM] | Kd [2] [nM] | koff [2] [s⁻¹] | kon [2] [M⁻¹ s⁻¹] | EC50 (read off the curve) [3] [nM] | binding result [4]
B1 | 0.0155 | 27.2 | 0.00933 | 343000 | ~0.1 | 
B2 |  |  |  |  |  | no binding
